Drawing on US20160200799A1, this text covers HI activity, Neutralizing activity (%) and Binding activity (absorbance for 10 molecules.

Sequences and labels used below:
B1: Group 36 representative clone F082-243, Fab-PP-type antibody (Fab, V domains shown)
VH: QVQLQQSGAEVKKPGSSVKVSCKASGGIFRKNAISWVRQAPGQGLEWMGGIIAIFGTANYAQKFQGRVTITADDSTNTVYMELTSLRYEDTAVYYCARGPNYYENYFDFWGQGTLVTVSS
VL: EIVLTQSPSSLSASLRDTVTITCRTSQAITNYLAWYQQRPGKAPKLLIYAASVLQSGVPSRFSGSGSGTDFTLTISSLQPEDFATYYCQKYDSAPYTFGQGTKLEIK
B2: Group 63 representative clone F083-336, Fab-PP-type antibody (Fab, V domains shown)
VH: QVQLQQSGAEVKQPGSSVKVSCKASGGIFRSNAISWVRQAPGQGLEWMGGIVALFGTANYAQKFQGRVTITADESTSTVYMELSSLRSEDTARYYCARNSGYHISGFYLDYWGQGTLVTVSS
VL: EIVLTQSPSSLSASVGDRVTITCRASQGISNYLAWYQQRPGKVPKLLIYTASTLLSGVPSRFSGGGSGTDYTLTISSLQPEDVATYYCQEYKSVPLTFGPGTKVEIK
B3: Group 64 representative clone F083-301, Fab-PP-type antibody (Fab, V domains shown)
VH: QVQLVQSGAEVKKPGSSVKVSCKASGGIFNSNAISWVRQAPGQGLEWMGGIIGIFGTANYAQKFQGRVTIAADQSTNTVFMELSSLTSEDTAVYFCARSRGYSFGYGTDYFDYWGQGTLVTVSS
VL: DIVMTQSPSTLSASVGDRVTITCRASQSISSWLAWYQQAPGKAPKLLIYEASKLQSGVPSRFSATGSGTEFTLTIASLQPEDFAIYYCQHYEAYPFSFGPGTKLDVK
B4: Group 38 representative clone F082-338, Fab-PP-type antibody (Fab, V domains shown)
VH: QVQLQESGAEVKKPGSSVKVSCKASGGPFRSHAISWVRQAAGQGLEWMGGITAVFGTANYAQKFQGRVTITADESTNIVSMELSSLRSEDTAIYYCARSLGYHTQYNGMDVWGQGTTVTVSS
VL: DVVMTQSPSSVSASVGDRVTITCRASQGISSWLAWYQQKPGKAPKLLIYAASSLQSGVPSRFSGSGSGTDFTLTISSLQPEDFATYYCQQANSFPITFGQGTRLEIK
B5: Group 65 representative clone F083-366, Fab-PP-type antibody (Fab, V domains shown)
VH: QVQLVQSGSEVKKPGSSVKVSCKASRGIFSSYAISWVRQAPGQGLEWMGAVIPMFGTLKYAENFQGRITISADKSMSAAYMELSSLRSEDTAVYYCARNYYGSGTYFNDAFDIWGQGTMVTVSS
VL: QSVLTQPPSGSGAPGQRVTISCTGGNSNIGAGYDVNGYQQLPGKAPKLLIYGNNNRPSGVPDRFSGSKSGTSASLAITGLQVEDEAHYYCQSYDNGLSGSVFGGGTQLTVLG
B6: Group 2 representative clone F082-220, Fab-PP-type antibody (Fab, V domains shown)
VH: QVQLVQSGAEVKKPGSSVKVSCKASGGIFRSNAVSWVRQAPGQGLEWMGGIIAIFGTPKYAQKFQGRVTITADESTSTVYMELSGLRYEDTAVYYCARGPNYYESYFDYWGQGTLVTVSS
VL: DIVMTQSPPSLSASVGDRVTITCRASQGISNYLAWYQQKPGKAPKLLIFGASTLHSGVSSRFSGSGSGPDFTLTISSLQPEDAATYYCQKYHSAPLTFGGGTKVEMK
B7: Group 43 representative clone F081-007, Fab-PP-type antibody (Fab, V domains shown)
VH: QVQLQQSGAEVKKPGSSVKVSCKASGGIFRKNAISWVRQAPGQGLEWMGGISAIFGTANYAQKFQGRVTITADESSNTVYMDLSRLRSEDTAIYYCASHPTYHFDKSGYRFDSWGQGTLVTVSS
VL: QSVLTQPPSVSAAPGQKVTISCSGSSSNIGNNYVSWYQQLPGTAPKLLIYDNNKRPSGIPDRFSGSKSGTSATLGITGLQTGDEADYYCGTWDSSLSAGVFGGGTKLTVLG
B8: Group 62 representative clone F083-349, Fab-PP-type antibody (Fab, V domains shown)
VH: QVQLVQSGAEVRKPGSSVKVSCKASGVIFIKFAISWVRQAPGQGLEWMGGIIPMFGTTNYAQKFQGRVTITADGSTNTVYMELSSLTSEDTAVYYCAKEEGYYYGSGPLDSWGQGTLVTVSS
VL: DIVMTQSPDFLSVSLGERVTINCKSSQTVLNRSNNKNYLAWYQKKPGQPPRLLLYWSSTRESGVPDRFSGSGSETDFALTITNLQAEDLAVYFCQQFYDMPVTFGGGTKLEIK
B9: Group 44 representative clone F081-008, Fab-PP-type antibody (Fab, V domains shown)
VH: QVQLVQSGAEVKKPGSSVKVSCKASGGTFSSFSTYTISWVRQAPGQGLEWMGRSIPLLGITNYAQKFQGRVTITADISTSTAYMELSSLRSEDTAVYYCARYQSSDYYNSEYFQHWGQGTLVTVSS
VL: EIVLTQSPGTLSLSLGERVTLSCRASQNVGTNYLAWYQQKPGQAPRLLIYGASSRATGVPDRFSGSGSGTDFTLTISRLAPEDFAVYYCQQYSSSPLTFGGGTKLEIK
B10: Group 42 representative clone F083-249, Fab-cp3-type antibody (Fab, V domains shown)
VH: QVQLVQSGSEVKKPGSSVKVSCKASGVTFSSYAISWVRQAPGQGLEWMGGISPMFGTTRYAQKFQGRVTITADESTRTGFMELSSLRSGDTAVYYCARSPTYYPGALDMWGQGTTVTVSS
VL: DVVMTQSPSLLSASVGDRVTITCRASQAIANFVSWFQQKPGEAPKSLIHAASTLQGGVPPRFSGSGYGAVFTLTITNLQPEDFATYFCQQYNSLPFTFGPGTDVEVR

The target of one test is Influenza virus A/Brisbane/59/2007 (H1N1) (Influenza A virus A/Brisbane/59/2007 (H1N1)). The test can be described thus: cell-based or functional assay.
Consider B1, for which the HI activity is more than 160 µg/mL, the Neutralizing activity (%) at 100 µg/ml worked out at 84.2% and the Neutralizing activity (%) at 250 µg/ml was 94.1%.
With B2, the HI activity was more than 160 µg/mL, the Neutralizing activity (%) at 100 µg/ml was 100% and the Neutralizing activity (%) at 250 µg/ml turned out to be 100%.
As for B3, the HI activity is more than 160 µg/mL, the Neutralizing activity (%) at 100 µg/ml was found to be 86.2% and the Neutralizing activity (%) at 250 µg/ml came to 92.1%.
On to B4, for which the HI activity was more than 160 µg/mL, the Neutralizing activity (%) at 100 µg/ml amounted to 100% and the Neutralizing activity (%) at 250 µg/ml came out at 100%.
Regarding B5, the HI activity was more than 160 µg/mL, the Neutralizing activity (%) at 100 µg/ml was found to be 96.1% and the Neutralizing activity (%) at 250 µg/ml was determined as 98%.
Regarding B6, the HI activity was more than 160 µg/mL, the Neutralizing activity (%) at 100 µg/ml worked out at 100% and the Neutralizing activity (%) at 250 µg/ml worked out at 100%.
Regarding B7, the HI activity was more than 160 µg/mL, the Neutralizing activity (%) at 100 µg/ml stood at 100% and the Neutralizing activity (%) at 250 µg/ml is 100%.
With B8, the HI activity was more than 160 µg/mL, the Neutralizing activity (%) at 100 µg/ml came out at 92.1% and the Neutralizing activity (%) at 250 µg/ml worked out at 92.1%.
For the molecule B9, the HI activity was more than 160 µg/mL, the Neutralizing activity (%) at 100 µg/ml is 100% and the Neutralizing activity (%) at 250 µg/ml is 100%.

The next test addresses Influenza virus A/California/7/2009pdm (H1N1pdm) (Influenza A virus A/California/7/2009pdm (H1N1pdm)). Put plainly: cell-based or functional assay.
With B1, the HI activity is more than 160 µg/mL.
Molecule B2 gave an HI activity of more than 160 µg/mL.
Regarding B3, the HI activity was more than 160 µg/mL.
For B4, the HI activity is more than 160 µg/mL.
Same read-out and setting: for B5 the value was more than 160 µg/mL.
The molecule B6 came in with an HI activity of more than 160 µg/mL.
The molecule B7 yielded an HI activity of more than 160 µg/mL.
On to B8, for which the HI activity was more than 160 µg/mL.
B9 yielded an HI activity of more than 160 µg/mL.

In another test the target is Influenza virus A/Indonesia/5/2005/PR8-IBCDC-RG2 (H5N1) (Influenza A virus A/Indonesia/5/2005/PR8-IBCDC-RG2 (H5N1)). The test can be described thus: cell-based or functional assay.
Consider B1, for which the Neutralizing activity (%) at 100 µg/ml is 50.6% and the Neutralizing activity (%) at 250 µg/ml worked out at 52.9%.
Take B2: the Neutralizing activity (%) at 100 µg/ml worked out at 98.8% and the Neutralizing activity (%) at 250 µg/ml stood at 100%.
Take B3: the Neutralizing activity (%) at 100 µg/ml worked out at 40.6% and the Neutralizing activity (%) at 250 µg/ml stood at 47.1%.
Take B4: the Neutralizing activity (%) at 100 µg/ml amounted to 67.1% and the Neutralizing activity (%) at 250 µg/ml was found to be 85.3%.
As for B5, the Neutralizing activity (%) at 100 µg/ml was -0.8% and the Neutralizing activity (%) at 250 µg/ml was -3.9%.
On to B6, for which the Neutralizing activity (%) at 100 µg/ml was found to be 90.6% and the Neutralizing activity (%) at 250 µg/ml stood at 97.1%.
With B7, the Neutralizing activity (%) at 100 µg/ml was determined as 97.6% and the Neutralizing activity (%) at 250 µg/ml was 98.8%.
Take B8: the Neutralizing activity (%) at 100 µg/ml stood at 40.2% and the Neutralizing activity (%) at 250 µg/ml was found to be 83.9%.
As to B9, the Neutralizing activity (%) at 100 µg/ml was determined as 48.8% and the Neutralizing activity (%) at 250 µg/ml is 56.5%.

The target in a further test is Influenza virus A/Panama/2007/1999 (H3N2) (Influenza A virus A/Panama/2007/1999 (H3N2)). Put plainly: cell-based or functional assay.
For B1, the Neutralizing activity (%) at 100 µg/ml is 7.5% and the Neutralizing activity (%) at 250 µg/ml was -2.7%.
On to B2, for which the Neutralizing activity (%) at 100 µg/ml is -11% and the Neutralizing activity (%) at 250 µg/ml is -8.9%.
For B3, the Neutralizing activity (%) at 100 µg/ml is -2.7% and the Neutralizing activity (%) at 250 µg/ml came to 7.5%.
Turning to B4, the Neutralizing activity (%) at 100 µg/ml is -2.7% and the Neutralizing activity (%) at 250 µg/ml was -0.7%.
Turning to B5, the Neutralizing activity (%) at 100 µg/ml is -13% and the Neutralizing activity (%) at 250 µg/ml is -6.8%.
For B6, in that order: 3.4% and 34.2%.
For B7, in that order: 11.6% and 13.7%.
Take B8: the Neutralizing activity (%) at 100 µg/ml was found to be 13.7% and the Neutralizing activity (%) at 250 µg/ml is -8.9%.
As for B9, the Neutralizing activity (%) at 100 µg/ml is 3.4% and the Neutralizing activity (%) at 250 µg/ml was found to be 15.8%.

The next test addresses Influenza virus A/Suita/1/2009pdm (H1N1 2009 pandemic) (Influenza A virus A/Suita/1/2009pdm (H1N1pdm)). The test can be described thus: cell-based or functional assay.
Turning to B1, the Neutralizing activity (%) at 100 µg/ml worked out at 97.7% and the Neutralizing activity (%) at 250 µg/ml stood at 85.9%.
B2: the Neutralizing activity (%) at 100 µg/ml stood at 100% and the Neutralizing activity (%) at 250 µg/ml was found to be 100%.
Consider B3, for which the Neutralizing activity (%) at 100 µg/ml amounted to 83.6% and the Neutralizing activity (%) at 250 µg/ml was 81.3%.
For B4, the Neutralizing activity (%) at 100 µg/ml stood at 100% and the Neutralizing activity (%) at 250 µg/ml is 97.7%.
In the case of B5, the Neutralizing activity (%) at 100 µg/ml came to 13.5% and the Neutralizing activity (%) at 250 µg/ml was determined as 19.2%.
For B6, in that order: 85.3% and 97.7%.
On to B7, for which the Neutralizing activity (%) at 100 µg/ml is 100% and the Neutralizing activity (%) at 250 µg/ml turned out to be 100%.
In the case of B8, the Neutralizing activity (%) at 100 µg/ml was found to be 97.1% and the Neutralizing activity (%) at 250 µg/ml was determined as 91.3%.
Turning to B9, the Neutralizing activity (%) at 100 µg/ml turned out to be 95.3% and the Neutralizing activity (%) at 250 µg/ml came to 97.7%.

For a further test, the target named is Influenza virus A/Brisbane/59/2007 (H1N1) (Influenza A virus A/Brisbane/59/2007 (H1N1)). Put plainly: ELISA on coated viral particles.
Molecule B10 displayed a Binding activity (absorbance at 492 nm) of 3.02.

A further test concerns the target Influenza virus A/California/7/2009pdm (H1N1pdm) (Influenza A virus A/California/7/2009pdm (H1N1pdm)). Put plainly: ELISA on coated viral particles.
Regarding B10, the Binding activity (absorbance at 492 nm) was 2.38.

In a further test the target is Influenza virus A/New Caledonia/20/1999 (H1N1) (Influenza A virus A/New Caledonia/20/1999 (H1N1)). The test can be described thus: ELISA on coated viral particles.
In turn, B10 had a Binding activity (absorbance at 492 nm) of 3.13.

The target of another test is Influenza virus A/Panama/2007/1999 (H3N2) (Influenza A virus A/Panama/2007/1999 (H3N2)). The test can be described thus: ELISA on coated viral particles.
On to B10, for which the Binding activity (absorbance at 492 nm) is 1.15.
